Source: EP4248993A1 (Charité - Universitätsmedizin Berlin, dated 2023)

Biological target: MERS-CoV RBD Twin-Strep His (wild type, G372-L588) (MERS-CoV)
Assay: serum pull-down with RBD-TwinStrep on streptavidin magnetic beads

B1: circulating mouse DPP4 (from serum) (receptor)
chain: SRRTYSLADYLKSTFRVKSYSLWWVSDFEYLYKQENNILLLNAEHGNSSIFLENSTFESFGYHSVSPDRLFVLLEYNYVKQWRHSYTASYNIYDVNKRQLITEEKIPNNTQWITWSPEGHKLAYVWKNDIYVKVEPHLPSHRITSTGEENVIYNGITDWVYEEEVFGAYSALWWSPNNTFLAYAQFNDTGVPLIEYSFYSDESLQYPKTVWIPYPKAGAVNPTVKFFIVNIDSLSSSSSAAPIQIPAPASVARGDHYLCDVVWATEERISLQWLRRIQNYSVMAICDYDKINLTWNCPSEQQHVEMSTTGWVGRFRPAEPHFTSDGSSFYKIISDKDGYKHICHFPKDKKDCTFITKGAWEVISIEALTSDYLYYISNQYKEMPGGRNLYKIQLTDHTNVKCLSCDLNPERCQYYAVSFSKEAKYYQLGCWGPGLPLYTLHRSTDHKELRVLEDNSALDRMLQDVQMPSKKLDFIVLNETRFWYQMILPPHFDKSKKYPLLLDVYAGPCSQKADASFRLNWATYLASTENIIVASFDGRGSGYQGDKIMHAINRRLGTLEVEDQIEAARQFVKMGFVDSKRVAIWGWSYGGYVTSMVLGSGSGVFKCGIAVAPVSRWEYYDSVYTERYMGLPIPEDNLDHYRNSTVMSRAEHFKQVEYLLIHGTADDNVHFQQSAQISKALVDAGVDFQAMWYTDEDHGIASSTAHQHIYSHMSHFLQQCFSLH
B1: no binding.
